Data taken from the Immune Epitope Database (IEDB).

Key:
HLA-B*27:05 = test: IEDB peptide-MHC binding, purified MHC/competitive/fluorescence; filed as Kd, often an IC50 or EC50 that approximates it; ≥ and ≤ were set here for values at or beyond the usual limits of such assays
HLA-A*03:01 [1] = test: as above
HLA-B*35:01 = test: as above
HLA-A*01:01 = test: as above
HLA-A*26:01 [2] = test: as above
HLA-B*15:01 [3] = test: as above
HLA-A*31:01 = test: as above
HLA-A*11:01 = test: IEDB peptide-MHC binding, purified MHC/direct/fluorescence; filed as Kd, often an IC50 or EC50 that approximates it; ≥ and ≤ were set here for values at or beyond the usual limits of such assays
HLA-C*03:03 = test: as above; settings: source organism: Campylobacter jejuni subsp. jejuni NCTC 11168 = ATCC 700819
HLA-C*05:01 = test: as above; settings: source organism: Campylobacter jejuni subsp. jejuni NCTC 11168 = ATCC 700819
HLA-A*69:01 [4] = test: as above
HLA-A*03:01 [5] = test: as above
HLA-A*02:16 = test: as above
HLA-A*02:01 [6] = test: as above
HLA-A*24:03 [7] = test: as above; settings: source organism: Brucella suis 1330
HLA-B*46:01 [8] = test: as above
HLA-A*29:02 [9] = test: as above; settings: source organism: Brucella suis 1330
HLA-B*57:01 [10] = test: as above
HLA-B*39:01 [11] = test: as above
HLA-A*02:03 = test: as above
HLA-A*02:12 [12] = test: as above
HLA-B*18:01 [13] = test: as above
HLA-B*15:17 [14] = test: as above; settings: source organism: Brucella suis 1330
HLA-B*15:01 [15] = test: as above
HLA-A*02:11 [16] = test: as above; settings: source organism: Brucella suis 1330
HLA-B*27:03 [17] = test: as above
HLA-A*26:01 [18] = test: as above
HLA-A*02:19 = test: as above
HLA-A*68:02 [19] = test: as above; settings: source organism: Vibrio parahaemolyticus AQ3810
HLA-B*51:01 [20] = test: as above; settings: source organism: Vibrio parahaemolyticus AQ3810
HLA-A*02:01 [21] = test: IEDB peptide-MHC binding, purified MHC/competitive/fluorescence; filed as Kd, often an IC50 or EC50 that approximates it; ≥ and ≤ were set here for values at or beyond the usual limits of such assays; settings: source organism: Vibrio cholerae 2740-80
HLA-A*24:03 [22] = test: as above; settings: source organism: Vibrio cholerae 2740-80
HLA-B*46:01 [23] = test: as above; settings: source organism: Vibrio cholerae 2740-80
HLA-A*29:02 [24] = test: as above; settings: source organism: Vibrio cholerae 2740-80
HLA-A*68:02 [25] = test: as above; settings: source organism: Vibrio cholerae 2740-80
HLA-B*57:01 [26] = test: as above; settings: source organism: Vibrio cholerae 2740-80
HLA-B*51:01 [27] = test: as above; settings: source organism: Vibrio cholerae 2740-80
HLA-B*39:01 [28] = test: as above; settings: source organism: Vibrio cholerae 2740-80
HLA-A*02:12 [29] = test: as above; settings: source organism: Vibrio cholerae 2740-80
HLA-B*18:01 [30] = test: as above; settings: source organism: Vibrio cholerae 2740-80
HLA-B*15:17 [31] = test: as above; settings: source organism: Vibrio cholerae 2740-80
HLA-A*02:11 [32] = test: as above; settings: source organism: Vibrio cholerae 2740-80
HLA-A*69:01 [33] = test: as above; settings: source organism: Vibrio cholerae 2740-80
HLA-B*27:03 [34] = test: as above; settings: source organism: Vibrio cholerae 2740-80
[35] = source organism: Yersinia pestis Nepal516
[36] = source organism: Salmonella enterica subsp. enterica serovar Typhi
[37] = source organism: Powassan virus
[38] = source organism: Escherichia coli O157:H7
[39] = source organism: Brucella suis 1330
[40] = source organism: Vibrio parahaemolyticus AQ3810
[41] = source organism: Vibrio cholerae 2740-80

FRAQTKGKV
Kd (HLA-B*27:05; source organism: Escherichia coli 536): 0.0867 µM

FVMSCKLLY
Kd (HLA-A*03:01 [1]; [35]): 1.85 µM
Kd (HLA-B*35:01; [35]): 0.0035 µM
Kd (HLA-A*01:01; [35]): 0.7 µM
Kd (HLA-A*26:01 [2]; [35]): 0.327 µM

GKLKYRASY
Kd (HLA-B*27:05; source organism: Campylobacter jejuni subsp. jejuni NCTC 11168 = ATCC 700819): 4.41 µM

ISANANFSY
Kd (HLA-A*03:01 [1]; [36]): ≥ 20 µM
Kd (HLA-B*35:01; [36]): 0.0247 µM
Kd (HLA-A*01:01; [36]): 0.0288 µM
Kd (HLA-B*15:01 [3]; [36]): 0.21 µM

KLKLKGTTY
Kd (HLA-A*03:01 [1]; [37]): 0.0684 µM
Kd (HLA-A*31:01; [37]): 2.15 µM
Kd (HLA-A*11:01; [37]): ≥ 20 µM

KRIGASLAH
Kd (HLA-B*27:05; source organism: Mycobacterium tuberculosis H37Rv): 0.171 µM

LLDEPTNHL
Kd (HLA-C*03:03): 2.91 µM
Kd (HLA-C*05:01): 0.008 µM
Kd (HLA-A*69:01 [4]; source organism: Bacillus anthracis): 0.105 µM

MIYMGLWLK
Kd (HLA-A*31:01; source organism: Escherichia coli O157:H7 str. Sakai): 0.139 µM
Kd (HLA-A*03:01 [5]; [38]): 0.119 µM
Kd (HLA-A*11:01; [38]): 0.0047 µM

QAHMGIAGL
Kd (HLA-A*02:16; [39]): ≥ 20 µM
Kd (HLA-A*03:01 [5]; [39]): ≥ 20 µM
Kd (HLA-A*02:01 [6]; [39]): ≥ 20 µM
Kd (HLA-A*24:03 [7]): ≥ 20 µM
Kd (HLA-B*46:01 [8]; [39]): ≥ 20 µM
Kd (HLA-A*29:02 [9]): ≥ 20 µM
Kd (HLA-B*57:01 [10]; [39]): ≥ 20 µM
Kd (HLA-B*39:01 [11]; [39]): ≥ 20 µM
Kd (HLA-A*02:03; [39]): ≥ 20 µM
Kd (HLA-A*02:12 [12]; [39]): ≥ 20 µM
Kd (HLA-B*18:01 [13]; [39]): ≥ 20 µM
Kd (HLA-B*15:17 [14]): 0.003 µM
Kd (HLA-B*15:01 [15]; [39]): ≥ 20 µM
Kd (HLA-A*02:11 [16]): ≥ 20 µM
Kd (HLA-B*27:03 [17]; [39]): ≥ 20 µM
Kd (HLA-A*26:01 [18]; [39]): ≥ 20 µM
Kd (HLA-A*02:19; [39]): ≥ 20 µM

RLDKPLWLH
Kd (HLA-A*02:16; [40]): ≥ 20 µM
Kd (HLA-A*02:01 [6]; [40]): ≥ 20 µM
Kd (HLA-B*46:01 [8]; [40]): ≥ 20 µM
Kd (HLA-A*68:02 [19]): ≥ 20 µM
Kd (HLA-B*57:01 [10]; [40]): ≥ 20 µM
Kd (HLA-B*51:01 [20]): ≥ 20 µM
Kd (HLA-B*39:01 [11]; [40]): ≥ 20 µM
Kd (HLA-A*02:03; [40]): ≥ 20 µM
Kd (HLA-A*02:12 [12]; [40]): ≥ 20 µM
Kd (HLA-B*18:01 [13]; [40]): ≥ 20 µM
Kd (HLA-B*15:01 [15]; [40]): ≥ 20 µM
Kd (HLA-A*69:01 [4]; [40]): ≥ 20 µM
Kd (HLA-B*27:03 [17]; [40]): ≥ 20 µM
Kd (HLA-A*26:01 [18]; [40]): ≥ 20 µM
Kd (HLA-A*02:19; [40]): ≥ 20 µM

TRALVRTGM
Kd (HLA-B*27:05; source organism: Influenza A virus (A/swine/Italy/1509-6/97(H1N1))): 0.0083 µM

VMYNLWKMK
Kd (HLA-A*31:01; source organism: Yellow fever virus): 0.00567 µM
Kd (HLA-A*11:01; source organism: Yellow fever virus 17D): 0.0063 µM

VQPWLMVDV
Kd (HLA-A*03:01 [1]; [41]): ≥ 20 µM
Kd (HLA-A*02:01 [21]): ≥ 20 µM
Kd (HLA-A*24:03 [22]): ≥ 20 µM
Kd (HLA-B*46:01 [23]): ≥ 20 µM
Kd (HLA-A*29:02 [24]): ≥ 20 µM
Kd (HLA-A*68:02 [25]): ≥ 20 µM
Kd (HLA-B*57:01 [26]): ≥ 20 µM
Kd (HLA-B*51:01 [27]): ≥ 20 µM
Kd (HLA-B*39:01 [28]): ≥ 20 µM
Kd (HLA-A*02:12 [29]): 1.17 µM
Kd (HLA-B*18:01 [30]): ≥ 20 µM
Kd (HLA-B*15:17 [31]): ≥ 20 µM
Kd (HLA-B*15:01 [3]; [41]): ≥ 20 µM
Kd (HLA-A*02:11 [32]): 0.119 µM
Kd (HLA-A*69:01 [33]): ≥ 20 µM
Kd (HLA-B*27:03 [34]): ≥ 20 µM
Kd (HLA-A*26:01 [2]; [41]): ≥ 20 µM
